± gives the standard deviation of the averaged measurements.
Experiment: total protein half-life in vivo (active degradation + dilution); higher = more stable protein
[1] = E. coli NCM3722 delta-clpP delta-lon delta-hslV, growth: N-lim chemostat, doubling time 6 h
[2] = wild type E. coli NCM3722, growth: C-lim chemostat, doubling time 3 h
[3] = wild type E. coli NCM3722, growth: C-lim chemostat, doubling time 6 h
[4] = E. coli NCM3722 delta-clpP, growth: N-lim chemostat, doubling time 6 h
[5] = E. coli NCM3722 delta-hslV, growth: N-lim chemostat, doubling time 6 h
[6] = E. coli NCM3722 delta-lon, growth: N-lim chemostat, doubling time 6 h
[7] = E. coli NCM3722 delta-smpB, growth: N-lim chemostat, doubling time 6 h
[8] = wild type E. coli NCM3722, growth: C-lim chemostat, doubling time 12 h
[9] = wild type E. coli NCM3722, growth: N-lim chemostat, doubling time 6 h
[10] = wild type E. coli NCM3722, growth: N-lim chemostat, doubling time 12 h
[11] = wild type E. coli NCM3722, growth: P-lim chemostat, doubling time 6 h
[12] = wild type E. coli NCM3722, growth: P-lim chemostat, doubling time 12 h

| Sequence | total protein half-life in vivo [1] | total protein half-life in vivo [2] | total protein half-life in vivo [3] | total protein half-life in vivo [4] | total protein half-life in vivo [5] | total protein half-life in vivo [6] | total protein half-life in vivo [7] | total protein half-life in vivo [8] | total protein half-life in vivo [9] | total protein half-life in vivo [10] | total protein half-life in vivo [11] | total protein half-life in vivo [12] |
| --- | --- | --- | --- | --- | --- | --- | --- | --- | --- | --- | --- | --- |
| MHYMKWIYPRRLRNQMILMAILMVIVPTLTIGYIVETEGRSAVLSEKEKKLSAVVNLLNQALGDRYDLYIDLPREERIRALNAELAPITENITHAFPGIGAGYYNKMLDAIITYAPSALYQNNVGVTIAADHPGREVMRTNTPLVYSGRQVRGDILNSMLPIERNGEILGYIWANELTEDIRRQAWKMDVRIIIVLTAGLLISLLLIVLFSRRLSANIDIITDGLSTLAQNIPTRLPQLPGEMGQISQSVNNLAQALRETRTLNDLIIENAADGVIAIDRQGDVTTMNPAAEVITGYQRHELVGQPYSMLFDNTQFYSPVLDTLEHGTEHVALEISFPGRDRTIELSVTTSRIHNTHGEMIGALVIFSDLTARKETQRRMAQAERLATLGELMAGVAHEVRNPLTAIRGYVQILRQQTSDPIHQEYLSVVLKEIDSINKVIQQLLEFSRPRHSQWQQVSLNALVEETLVLVQTAGVQARVDFISELDNELSPINADRELLKQVLLNILINAVQAISARGKIRIQTWQYSDSQQAISIEDNGCGIDLSLQKKIFDPFFTTKASGTGLGLALSQRIINAHQGDIRVASLPGYGATFTLILPINPQGNQTV | 6.89 h | 3.09 ± 0.28 h | 6.53 h | – | – | – | – | – | – | – | – | – |
| MHYQPKQDLLNDRIILVTGASDGIGREAAMTYARYGATVILLGRNEEKLRQVASHINEETGRQPQWFILDLLTCTSENCQQLAQRIAVNYPRLDGVLHNAGLLGDVCPMSEQNPQVWQDVMQVNVNATFMLTQALLPLLLKSDAGSLVFTSSSVGRQGRANWGAYAASKFATEGMMQVLADEYQQRLRVNCINPGGTRTAMRASAFPTEDPQKLKTPADIMPLYLWLMGDDSRRKTGMTFDAQPGRKPGISQ | 4.5 ± 0.46 h | 2.99 ± 0.043 h | 5.77 ± 0.044 h | 4.29 ± 0.28 h | 3.87 ± 0.11 h | 4.56 ± 0.44 h | 3.62 ± 0.049 h | 9.39 ± 1.9 h | 3.68 ± 0.25 h | 5.92 ± 0.058 h | 6.22 ± 0.24 h | 11.3 ± 0.24 h |
| MIAIADILQAGEKLTAVAPFLAGIQNEEQYTQALELVDHLLLNDPENPLLDLVCAKITAWEESAPEFAEFNAMAQAMPGGIAVIRTLMDQYGLTLSDLPEIGSKSMVSRVLSGKRKLTLEHAKKLATRFGISPALFID | 4.71 h | – | – | 1.51 h | – | – | – | – | – | – | – | 1.85 h |
| MIALIQRVTRASVTVEGEVTGEIGAGLLVLLGVEKDDDEQKANRLCERVLGYRIFSDAEGKMNLNVQQAGGSVLVVSQFTLAADTERGMRPSFSKGASPDRAEALYDYFVERCRQQEMNTQTGRFAADMQVSLVNDGPVTFWLQV [P0A6M4] | 4.67 ± 0.29 h | – | 5.48 ± 0.15 h | 3.81 ± 0.19 h | 3.859 ± 0.026 h | 4.26 ± 0.52 h | 4.06 ± 0.17 h | 10 ± 0.87 h | 3.84 ± 0.29 h | 6.66 ± 0.43 h | 5.52 ± 0.24 h | 11 ± 0.22 h |
| MIASKFGIGQQVRHSLLGYLGVVVDIDPVYSLSEPSPDELAVNDELRAAPWYHVVMEDDNGLPVHTYLAEAQLSSELQDEHPEQPSMDELAQTIRKQLQAPRLRN [P0AB20] | 3.23 ± 0.48 h | – | – | – | – | 1.99 ± 0.27 h | – | – | – | – | – | – |
| MIDDDGYRPNVGIVICNRQGQVMWARRFGQHSWQFPQGGINPGESAEQAMYRELFEEVGLSRKDVRILASTRNWLRYKLPKRLVRWDTKPVCIGQKQKWFLLQLVSGDAEINMQTSSTPEFDGWRWVSYWYPVRQVVSFKRDVYRRVMKEFASVVMSLQENTPKPQNASAYRRKRG [P0A776] | 5.67 ± 0.079 h | – | 5.48 ± 0.44 h | 5.62 ± 0.48 h | 6.81 ± 1.3 h | 6.4 ± 0.12 h | 5.02 ± 0.73 h | 9.01 ± 3.2 h | 4.84 ± 0.076 h | 11.9 ± 3.9 h | – | 9.25 ± 0.6 h |
| MIDLYFAPTPNGHKITLFLEEAELDYRLIKVDLGKGGQFRPEFLRISPNNKIPAIVDHSPADGGEPLSLFESGAILLYLAEKTGLFLSHETRERAATLQWLFWQVGGLGPMLGQNHHFNHAAPQTIPYAIERYQVETQRLYHVLNKRLENSPWLGGENYSIADIACWPWVNAWTRQRIDLAMYPAVKNWHERIRSRPATGQALLKAQLGDERSDS | – | 3.27 ± 0.89 h | 4.84 ± 0.4 h | 4.37 ± 1.4 h | 4.61 ± 1.6 h | 4.28 ± 0.48 h | 2.94 ± 1.1 h | 9.73 ± 0.75 h | 4.02 ± 1.1 h | 6.01 ± 0.55 h | 5.6483 ± 0.0048 h | 11.48 ± 0.07 h |
| MIDTTLPLTDIHRHLDGNIRPQTILELGRQYNISLPAQSLETLIPHVQVIANEPDLVSFLTKLDWGVKVLASLDACRRVAFENIEDAARHGLHYVELRFSPGYMAMAHQLPVAGVVEAVIDGVREGCRTFGVQAKLIGIMSRTFGEAACQQELEAFLAHRDQITALDLAGDELGFPGSLFLSHFNRARDAGWHITVHAGEAAGPESIWQAIRELGAERIGHGVKAIEDRALMDFLAEQQIGIESCLTSNIQTSTVAELAAHPLKTFLEHGIRASINTDDPGVQGVDIIHEYTVAAPAAGLSREQIRQAQINGLEMAFLSAEEKRALREKVAAK | 5.4 ± 0.46 h | 2.88 ± 0.36 h | – | 4.73 ± 0.99 h | 4.41 ± 0.094 h | 5.25 ± 0.55 h | 4.49 ± 0.38 h | 10.6 ± 0.3 h | 4.68 ± 0.59 h | 7.15 ± 0.088 h | 5.63 ± 0.2 h | 11 ± 0.3 h |

— the supplement of paper PMC11246515
